We go through three molecules from patent US5550216A, “Gelatinase A inhibitor, and analytical reagent thereof for the determination of gelatinase A” (Oriental Yeast Co., Ltd., priority 1993, dated 1996).

The target of one data set is T1, gelatinase A (Homo sapiens, UniProt P08253).
T1 construct: made in house; host or cells: Natural (endogenous) secretion of the T98G human glioblastoma cell line
T1 sequence (P08253 110-660): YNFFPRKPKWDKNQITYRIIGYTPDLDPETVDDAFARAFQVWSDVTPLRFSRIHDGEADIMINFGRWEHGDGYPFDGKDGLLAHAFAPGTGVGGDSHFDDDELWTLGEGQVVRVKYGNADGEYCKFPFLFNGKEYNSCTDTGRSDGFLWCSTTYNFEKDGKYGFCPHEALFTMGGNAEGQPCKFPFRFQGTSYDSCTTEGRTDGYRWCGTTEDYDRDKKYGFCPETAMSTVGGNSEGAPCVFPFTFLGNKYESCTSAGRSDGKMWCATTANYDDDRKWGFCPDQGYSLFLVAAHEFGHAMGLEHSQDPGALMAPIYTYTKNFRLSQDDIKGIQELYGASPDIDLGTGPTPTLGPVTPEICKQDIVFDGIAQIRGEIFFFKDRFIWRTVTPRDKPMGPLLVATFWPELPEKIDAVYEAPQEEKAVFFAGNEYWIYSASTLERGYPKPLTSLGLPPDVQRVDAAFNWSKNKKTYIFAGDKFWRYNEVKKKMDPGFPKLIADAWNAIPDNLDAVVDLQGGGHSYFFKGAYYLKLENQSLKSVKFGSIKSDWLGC
Kind of data set: Hydrolysis of synthetic peptide βAP10-20 by activated gelatinase A (reverse phase HPLC), enzyme kinetic analysis. It is filed as biochemical. The conditions noted are these: hydrolysis of β-AP10-20 by APMA/stromelysin activated gelatinase A; from slope of Dixon plot (1/v vs (I)). Here is the method:
(§1) FIGS. 5 (A) and (B) show the degradation of synthetic peptide βAP10-20by gelatinase A. By heparin affinity chromatography according to the method by (Kelkenbrock), TIMP-2-free progelatinase A was isolated from TIMP-2 binding form. Proenzyme (1 μg) was activated by incubating for 1 hour at 37° C. in 20 mMTris-HCl (pH 7.5) containing 10 mMCa^2+ with 1 mMAPMA and 0.25 μg of rat stromelysin. Then, the activated enzyme was incubated for 6 hours at 37° C. in the absence or presence of 5 μg of 100-kDa APP in 50 μl of Tris-HCl/Ca^2+ buffer with 20 nmol (28 μg) of synthetic peptide β-AP10-20 (cf. FIG. 2D). Then the mixture was admixed with 0.5 ml of 0.05% trifluoroacetic acid (TFA), and loaded to Cosmosil 5C18 reverse phase HPLC column (4.6×150 mm) (Nacalai Tesque, Kyoto, Japan). The column was eluted at the flow rate of 0.5 ml/min with 15 ml of 0 to 80% linear gradient acetonitrile in 0.05% TFA. The amino acid sequence of the […] was analyzed by a protein sequencer. As previously reported, rat stromelysin was purified with the proenzyme form and activated by APMA. Under the condition described above, stromelysin hardly hydrolyzed βAP10-20.
(§2) FIG. 5(A) and (B) represent enzyme kinetic analysis of the inhibition of gelatinase A activity by 100-bDa APP. […] The maximum concentration of 100-kDa APP ([…]) corresponded to about 910 nM. […]

The target of the next data set is T2, human progelatinase A (Homo sapiens, UniProt P08253).
T2 construct: obtained from the culture supernatant of T98G human glioblastoma cell line; made in house; host or cells: Natural (endogenous) secretion of the T98G human glioblastoma cell line, purified from the culture supernatant
T2 sequence (P08253 110-660): T1 sequence (P08253 110-660)
Kind of data set: Reverse zymography of gelatinase A inhibitor on gelatine-containing SDS polyacrylamide gel. The class given is biochemical. As to conditions: 0.2 μg/lane protein; gel incubated with 1 μg/ml human progelatinase A and 1 mM APMA. The source says: The large triangle arrow represents 100-kDa inhibitor. Three small triangle arrows represent TIMP (28 kDa), unidentified 22-kDa inhibitor and TIMP-2 (20 kDa). The bands of negative image (white lines) indicate gelatine degradation activity secreted by tumor cells. b represents the results of non-reductive SDS-PAGE of purified 100-kDa inhibitor, while c represents the results of SDS-PAGE (lanes 1 to 3) and the reverse zymograms of 100-kDa inhibitor (lane 1, 2, 4 and 5) and human TIMP (lane 3 and 6). Equal amount (0.2 μg/lane) of the protein was analyzed under reductive condition (lanes 2 and 5) and non-reductive condition (lane 1, 3, 4 and 6). […] 100-kDa inhibitor (200 μg) was incubated with 0.3 μg of endoproteinase Lys-C (Sigma, St. Louis, Mo.) for 60 minutes at 30° C. in 60 μl of 50 mM Tris-HCl (pH 7.5) containing 2M urea and 1M NaCl, and a part of digestion products were subjected to electrophoresis. As a result, a peptide from 439V through 687 k of the amino acid sequence in FIG. 1 was obtained.
The supernatant of EJ-1 cell culture which had been incubated for 2 days in serum-free RPMI1640 medium was used for the preparation. The reverse zympgraphy of gelatinase A inhibitor was conducted on polyacrylamide gel containing 0.1% SDS and 1 mg/ml of gelatine by a modified Herroh's method. […]

Substrate in data set [1]: CC(C)C[C@H](NC(=O)[C@H](CCCCN)NC(=O)[C@H](CCC(N)=O)NC(=O)[C@H](Cc1c[nH]cn1)NC(=O)[C@H](Cc1c[nH]cn1)NC(=O)[C@@H](NC(=O)[C@H](CCC(=O)O)NC(=O)[C@@H](N)Cc1ccc(O)cc1)C(C)C)C(=O)N[C@H](C(=O)N[C@@H](Cc1ccccc1)C(=O)N[C@@H](Cc1ccccc1)C(=O)O)C(C)C
Kind of data set: Hydrolysis of synthetic peptide βAP10-20 by activated gelatinase A (reverse phase HPLC), enzyme kinetic analysis. It is filed as biochemical, human. As to conditions: other: hydrolysis of βAP10-20 by activated gelatinase A; Lineweaver-Burk plots, 30 to 400 μM substrate; pH 7.5. As for the experimental part: as §1, §2

In the case of “100-kDa APP: secretory form of APP (gelatinase A inhibition protein), 100k, from EJ-1 culture fluid; 18L through 687K of APP770”, affinity with gelatinase A was put at a Ki of 40 nM. In addition, the “inhibitor bands on the reverse zymograms” value with human progelatinase A is “markedly stained gelatine bands (inhibitor bands)”. Take “human TIMP: known gelatinase inhibitor (28 kDa) used as comparison in reverse zymography [reference compound]”: in the data set with human progelatinase A, the “inhibitor bands on the reverse zymograms” value is “markedly stained gelatine bands (inhibitor bands)”.

B1: gelatinase A (Homo sapiens) (protein)
chain: T1 sequence (P08253 110-660)
notes: made in house; host or cells: Natural (endogenous) secretion of the T98G human glioblastoma cell line
As for B1, in data set [1], the Km was found to be 130 µM and the Vmax was determined as 3.9 nmol/h.
